Measurements taken from PMC3098871, “High Throughput Determination of TGFβ1/SMAD3 Targets in A549 Lung Epithelial Cells”.

Molecular target: SMAD3 (UniProt P84022 1-425)
Experiment: EMSA; poly(dI-dC) 0.25 mg/mL; two complexes, partially abolished by unlabeled probe (40 and 200 ng); 20% glycerol, 5 mM MgCl2, 2.5 mM EDTA, 25 mM DTT, 200 mM NaCl, 50 mM Tris-HCl pH 7.6, 0.25 mg/mL poly(dI-dC), 20 min at room temperature; 6% native PAGE
Conditions: protein: commercial; label: 5'-Cy5 on strand 1; blunt

Chain of SMAD3 (P84022 whole entry): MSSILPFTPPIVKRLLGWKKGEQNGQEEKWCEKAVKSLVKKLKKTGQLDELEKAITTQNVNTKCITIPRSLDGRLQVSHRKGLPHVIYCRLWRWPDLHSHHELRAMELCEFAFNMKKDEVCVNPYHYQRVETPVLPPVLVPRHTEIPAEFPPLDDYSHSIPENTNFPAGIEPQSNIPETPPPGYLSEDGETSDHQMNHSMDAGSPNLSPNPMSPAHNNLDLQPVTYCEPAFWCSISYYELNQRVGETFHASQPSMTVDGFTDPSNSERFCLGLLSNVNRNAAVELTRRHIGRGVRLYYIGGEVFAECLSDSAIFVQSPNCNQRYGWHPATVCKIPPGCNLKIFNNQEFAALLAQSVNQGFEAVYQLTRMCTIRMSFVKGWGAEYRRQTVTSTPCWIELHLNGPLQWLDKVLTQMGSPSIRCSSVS

B1: FOXA2 promoter probe (-42 to -19) (dsDNA)
DNA 1: GATTGCTGGTCGTTTGTTGTGGCT
DNA 2: AGCCACAACAAACGACCAGCAATC
B1: binds.
